By Kd is commonly meant a measure of binding affinity in units of concentration.

This assay concerns the target T1, recombinant human CD93 protein (R&D Systems) (human, UniProt Q9NPY3 24-580).
T1 sequence (looked up): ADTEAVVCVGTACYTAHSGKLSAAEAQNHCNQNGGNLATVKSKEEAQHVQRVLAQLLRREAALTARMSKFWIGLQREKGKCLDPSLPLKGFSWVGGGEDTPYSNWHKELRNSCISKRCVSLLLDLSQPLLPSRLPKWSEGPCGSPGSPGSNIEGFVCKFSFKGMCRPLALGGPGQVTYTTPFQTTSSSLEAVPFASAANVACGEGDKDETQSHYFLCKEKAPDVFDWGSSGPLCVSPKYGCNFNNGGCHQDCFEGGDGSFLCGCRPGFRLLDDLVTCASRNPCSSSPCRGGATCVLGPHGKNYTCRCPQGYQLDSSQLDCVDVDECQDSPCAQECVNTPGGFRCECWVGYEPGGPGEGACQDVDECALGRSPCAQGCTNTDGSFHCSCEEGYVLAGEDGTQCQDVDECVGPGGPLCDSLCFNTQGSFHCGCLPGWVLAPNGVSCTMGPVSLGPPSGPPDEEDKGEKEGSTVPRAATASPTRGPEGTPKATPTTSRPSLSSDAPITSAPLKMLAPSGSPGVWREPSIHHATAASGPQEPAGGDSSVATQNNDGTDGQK
The assay is described as follows: MST.

B1: IGFBP7 protein (R&D Systems), labelled for microscale thermophoresis (ligand, human, UniProt Q16270 27-282, looked up)
chain: SSSDTCGPCEPASCPPLPPLGCLLGETRDACGCCPMCARGEGEPCGGGGAGRGYCAPGMECVKSRKRRKGKAGAAAGGPGVSGVCVCKSRYPVCGSDGTTYPSGCQLRAASQRAESRGEKAITQVSKGTCEQGPSIVTPPKDIWNVTGAQVYLSCEVIGIPTPVLIWNKVKRGHYGVQRTELLPGDRDNLAIQTRGGPEKHEVTGWVLVSPLSKEDAGEYECHASNSQGQASASAKITVVDALHEIPVKKGEGAEL
modifications: fluorescent dye RED-tris-NTA 2nd Generation (Monolith His-Tag Labeling kit)
Take B1: the Kd came out at 53.1 ± 20.2 nM.

The values above are taken from publication PMC8749958 (Science translational medicine, 2021).
